We go through one molecule from US20070274991A1 (published 2007).

The target of the experiment is T1, intact EGFR expressed on human mammary epithelial cells (HMECs) (human, UniProt P00533 25-1210).
T1 construct: whole, on cells; also called wild-type EGFR
The experiment in a line: radiolabeled antibody on parental HMECs.

Description: To measure the effect on EGFR and EGFRvIII signaling of a given antibody binding to EGFR or EGFRvIII, radiolabeled antibodies were added to cultures of the HMECs described in the table above. […] When a non-neutralizing radiolabeled antibody binds to EGFR on a mammalian cell, the antibody will be internalized at a high rate if a ligand is present or if the EGFR is constitutively signaling for some other reason. When a neutralizing radiolabeled antibody binds to EGFR, signaling will stop and signaling-stimulated endocytosis will also stop.
In brief, radiolabelled antibodies were added to culture parental HMECs and to HMECs expressing EGFRvIII. At times of 0, 1, 2, 3, 5 and 10 minutes, cell samples were withdrawn, washed, and then acid-stripped to remove and measure surface-bound radiolabeled antibody. The cells were then lysed and the remaining radiolabel was measured to determine levels of internalized antibody.

B1: EMD72000 (antibody, V domains shown)
VH: QVQLVQSGAEVKKPGASVKVSCKASGYTFTSHWMHWVRQAPGQGLEWIGEFNPSNGRTNYNEKFKSKATMTVDTSTNTAYMELSSLRSEDTAVYYCASRDYDYDGRYFDYWGQGTLVTVS
VL: DIQMTQSPSSLSASVGDRVTITCSASSSVTYMYWYQQKPGKAPKLLIYDTSNLASGVPSRFSGSGSGTDYTFTISSLQPEDIATYYCQQWSSHIFTFGQGTKVEIK
notes: Used fluorescently labeled in yeast display and radiolabeled in the internalization assay; also called anti-EGFR antibody EMD72000; humanized version of the murine antibody 425
On to B1, for which the binding result is “binds”.
